The values that follow are results of earlier work, collected in publication PMC10215522.

A word on the Kd: it is a measure of binding affinity in units of concentration.

The target of the data set is TFPI2 (Homo sapiens) (UniProt P48307).
Chain of UniProt P48307 (P48307 23-235): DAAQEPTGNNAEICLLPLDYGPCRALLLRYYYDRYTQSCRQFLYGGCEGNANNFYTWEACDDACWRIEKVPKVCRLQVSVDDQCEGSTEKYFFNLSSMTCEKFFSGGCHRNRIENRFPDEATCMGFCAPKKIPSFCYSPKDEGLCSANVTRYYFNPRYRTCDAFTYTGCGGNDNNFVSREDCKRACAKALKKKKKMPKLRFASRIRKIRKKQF

Take gC1qR (from UniProt Q07021): the Kd is 70 nM.
